Measurements as given in patent US20050260733A1, “Proteases and uses thereof” (WYETH, priority 2004, published 2005).
Read-outs that look alike come from different tables or passages of the source.

What was measured:
[1] = molecular target: undigested bovine aggrecan (bovine) (UniProt P13608); assay: cell-based or functional assay
[2] = molecular target: undigested bovine aggrecan (bovine) (UniProt P13608); assay: cell-based or functional assay; remark: listed apart in the source

Sequence of undigested bovine aggrecan (bovine) (P13608 20-2364): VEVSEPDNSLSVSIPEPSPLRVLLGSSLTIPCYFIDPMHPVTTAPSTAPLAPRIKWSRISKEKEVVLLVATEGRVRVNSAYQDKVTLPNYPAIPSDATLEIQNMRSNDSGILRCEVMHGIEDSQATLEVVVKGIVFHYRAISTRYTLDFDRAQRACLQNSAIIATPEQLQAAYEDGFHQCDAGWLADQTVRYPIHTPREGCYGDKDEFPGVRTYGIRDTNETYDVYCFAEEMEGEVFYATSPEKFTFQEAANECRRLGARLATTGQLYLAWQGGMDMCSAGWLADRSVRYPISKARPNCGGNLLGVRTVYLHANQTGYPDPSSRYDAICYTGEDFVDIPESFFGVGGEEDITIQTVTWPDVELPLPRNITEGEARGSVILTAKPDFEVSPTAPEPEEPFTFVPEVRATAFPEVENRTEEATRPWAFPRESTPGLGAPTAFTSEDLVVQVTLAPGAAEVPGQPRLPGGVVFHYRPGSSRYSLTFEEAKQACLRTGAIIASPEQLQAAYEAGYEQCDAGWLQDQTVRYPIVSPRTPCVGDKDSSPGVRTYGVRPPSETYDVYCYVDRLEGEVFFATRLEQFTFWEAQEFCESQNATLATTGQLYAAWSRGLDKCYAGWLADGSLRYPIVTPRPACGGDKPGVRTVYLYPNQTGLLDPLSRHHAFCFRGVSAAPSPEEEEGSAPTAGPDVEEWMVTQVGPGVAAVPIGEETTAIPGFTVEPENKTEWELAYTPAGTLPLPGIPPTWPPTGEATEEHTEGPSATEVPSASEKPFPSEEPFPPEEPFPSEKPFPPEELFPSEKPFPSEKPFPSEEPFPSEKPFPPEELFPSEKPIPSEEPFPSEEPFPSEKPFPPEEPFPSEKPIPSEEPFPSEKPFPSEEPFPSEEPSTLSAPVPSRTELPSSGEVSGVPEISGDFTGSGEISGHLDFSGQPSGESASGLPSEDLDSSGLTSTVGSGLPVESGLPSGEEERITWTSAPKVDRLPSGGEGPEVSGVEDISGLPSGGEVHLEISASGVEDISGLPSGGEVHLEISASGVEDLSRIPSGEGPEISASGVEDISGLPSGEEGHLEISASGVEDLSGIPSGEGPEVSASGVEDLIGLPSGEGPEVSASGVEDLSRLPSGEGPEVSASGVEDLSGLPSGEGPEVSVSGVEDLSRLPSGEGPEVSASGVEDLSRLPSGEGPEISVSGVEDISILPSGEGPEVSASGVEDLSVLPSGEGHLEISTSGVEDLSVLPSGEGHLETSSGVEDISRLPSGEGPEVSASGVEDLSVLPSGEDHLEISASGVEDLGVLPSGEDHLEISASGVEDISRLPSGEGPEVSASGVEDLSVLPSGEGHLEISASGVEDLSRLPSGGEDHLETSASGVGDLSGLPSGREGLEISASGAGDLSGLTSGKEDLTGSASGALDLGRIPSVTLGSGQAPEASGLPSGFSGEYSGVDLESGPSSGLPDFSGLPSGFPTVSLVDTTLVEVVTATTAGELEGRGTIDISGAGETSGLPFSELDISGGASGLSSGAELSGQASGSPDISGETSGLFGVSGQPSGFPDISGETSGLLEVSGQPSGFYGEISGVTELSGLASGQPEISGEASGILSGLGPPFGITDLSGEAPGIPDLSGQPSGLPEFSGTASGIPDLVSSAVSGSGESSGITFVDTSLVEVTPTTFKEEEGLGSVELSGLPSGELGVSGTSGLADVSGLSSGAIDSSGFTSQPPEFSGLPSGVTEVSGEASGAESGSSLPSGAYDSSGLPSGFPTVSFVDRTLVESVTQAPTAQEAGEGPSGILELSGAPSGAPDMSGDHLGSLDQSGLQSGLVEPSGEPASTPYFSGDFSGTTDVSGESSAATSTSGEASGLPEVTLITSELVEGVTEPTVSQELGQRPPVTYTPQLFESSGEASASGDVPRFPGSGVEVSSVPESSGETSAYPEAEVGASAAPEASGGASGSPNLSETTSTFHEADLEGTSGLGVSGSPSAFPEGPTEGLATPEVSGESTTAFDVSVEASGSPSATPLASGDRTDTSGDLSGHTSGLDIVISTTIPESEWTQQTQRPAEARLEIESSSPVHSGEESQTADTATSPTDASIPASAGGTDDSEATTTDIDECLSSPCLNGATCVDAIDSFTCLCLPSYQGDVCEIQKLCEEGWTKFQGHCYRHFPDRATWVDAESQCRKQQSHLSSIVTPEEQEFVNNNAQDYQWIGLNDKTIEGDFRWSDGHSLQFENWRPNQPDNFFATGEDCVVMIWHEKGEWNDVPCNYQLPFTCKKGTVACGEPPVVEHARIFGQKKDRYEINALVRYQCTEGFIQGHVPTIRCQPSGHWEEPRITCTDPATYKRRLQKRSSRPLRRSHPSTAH

amount of enzyme needed for 45% inhibition in the competitive inhibition ELISA for aggrecanase activity [1]: 1 ng
amount of enzyme needed for 45% inhibition in the competitive inhibition ELISA for aggrecanase activity [2]: 0.0135 pM
Substance: recombinant ADAMTS-4 (from UniProt O75173 213-694) (enzyme)
